Test [1] concerns the target recombinant human αβ hemoglobin, 6x His tag on the N-terminus of the α subunit (αβHb dimer) (human) (UniProt P69905). The test can be described thus: BLI.
Test [2] deals with recombinant human αβ hemoglobin (αβHb dimer) (human) (UniProt P69905). Put plainly: BLI.
In test [3] the target is recombinant human adult hemoglobin (αβHb), αβ dimer (human) (UniProt P69905). The test can be described thus: BLI.

Data on five molecules can be found in publication PMC12241658.

“And” between values parts separate entries of the source, which are not always exact repeats. Equal entries are not always repeated.

For “ChuA (outer membrane heme transporter, TonB-dependent transporter) from E. coli CFT073 (receptor)”, in test [1], the koff is 0.0574 s⁻¹ and 0.0449 s⁻¹ and 0.0512 s⁻¹; the kon is 158000 M⁻¹ s⁻¹ and 144000 M⁻¹ s⁻¹ and 173000 M⁻¹ s⁻¹. ChuA (receptor): in test [2], the koff was 0.0574 s⁻¹ and 0.0531 s⁻¹; the kon is 144000 M⁻¹ s⁻¹ and 118000 M⁻¹ s⁻¹.

As to “ChuA, outer membrane TonB-dependent heme/hemoglobin transporter of E. coli CFT073 (receptor)”, in test [3], the Kd was found to be 71.5 nM.

B1: recombinant human myoglobin (natural protein)
chain: MGLSDGEWQLVLNVWGKVEADIPGHGQEVLIRLFKGHPETLEKFDKFKHLKSEDEMKASEDLKKHGATVLTALGGILKKKGHHEAEIKPLAQSHATKHKIPVKYLEFISECIIQVLQSKHPGDFGADAQGAMNKALELFRKDMASNYKELGFQG
B1 gave an EC50 of the growth of E. coli ΔTBDT:ChuOP in LB liquid medium with 200 µM 2,2'-bipyridine, supplemented with serially diluted myoglobin (nonlinear regression, three parameters) with ChuA (E. coli CFT073) of 24200 nM.

B2: recombinant human neuroglobin (natural protein)
chain: MERPEPELIRQSWRAVSRSPLEHGTVLFARLFALEPDLLPLFQYNCRQFSSPEDCLSSPEFLDHIRKVMLVIDAAVTNVEDLSSLEEYLASLGRKHRAVGVKLSSFSTVGESLLYMLEKCLGPAFTPATRAAWSQLYGAVVQAMSRGWDGE
Molecule B2 came in with an EC50 of the growth of E. coli ΔTBDT:ChuOP in LB liquid medium with 200 µM 2,2'-bipyridine, supplemented with serially diluted neuroglobin (nonlinear regression, three parameters) in the test with ChuA (E. coli CFT073) of 826 nM.
